Measurements: patent US20240059790A1 (JANUX THERAPEUTICS, published 2024)

Biological target: T1, polypeptide complex 1 (PC-1)
T1 construct: also called Intact PC-1; uncleaved PC-1
Assay: ELISA ('Cyno Albumin ELISA')

B1: cynomolgus monkey albumin (other)
chain: DTHKSEVAHRFKDLGEEHFKGLVLVAFSQYLQQCPFEEHVKLVNEVTEFAKTCVADESAENCDKSLHTLFGDKLCTVATLRETYGEMADCCAKQEPERNECFLQHKDDNPNLPPLVRPEVDVMCTAFHDNEATFLKKYLYEVARRHPYFYAPELLFFAARYKAAFAECCQAADKAACLLPKLDELRDEGKASSAKQRLKCASLQKFGDRAFKAWAVARLSQKFPKAEFAEVSKLVTDLTKVHTECCHGDLLECADDRADLAKYMCENQDSISSKLKECCDKPLLEKSHCLAEVENDEMPADLPSLAADYVESKDVCKNYAEAKDVFLGMFLYEYARRHPDYSVMLLLRLAKAYEATLEKCCAAADPHECYAKVFDEFQPLVEEPQNLVKQNCELFEQLGEYKFQNALLVRYTKKVPQVSTPTLVEVSRNLGKVGAKCCKLPEAKRMPCAEDYLSVVLNRLCVLHEKTPVSEKVTKCCTESLVNRRPCFSALELDEAYVPKAFNAETFTFHADMCTLSEKEKQVKKQTALVELVKHKPKATKEQLKGVMDNFAAFVEKCCKADDKEACFAEEGPKFVAASQAALA
notes: Antigen immobilized on the ELISA plate
Q: Does B1 bind?
A: binds
